We go through six molecules from patent US20240360224A1 (ORIONIS BIOSCIENCES, published 2024).

The chains are these.
B1: 3LEC_89 (wild type) (VHH)
VHH: QVQLQESGGGLVQPGGSLRLSCAASGRIFSVNAMGWYRQAPGKQRELVAAITNQGAPTYADSVKGRFTISRDNAGNTVYLQMNSLRPEDTAVYYCKAFTRGDDYWGQGTQVTVSS
notes: pHEN6C periplasmic expression with C-terminal his6 tag, no HA tag
B2: 3LEC_89_opt4 (E1D-Q5V-Q108L-A74S-G75K) (VHH)
VHH: B1 VHH with Q1D, Q5V, A74S, G75K, Q110L
notes: The entry already carries the named substitutions; pHEN6C, C-terminal his6 tag
B3: 3LEC_89_opt1 (E1D-Q5V-Q108L) (VHH)
VHH: B1 VHH with Q1D, Q5V, Q110L
notes: as for B2
B4: 3LEC_89_opt3 (E1D-Q5V-Q108L-G75K) (VHH)
VHH: B1 VHH with Q1D, Q5V, G75K, Q110L
notes: as for B2
B5: 3LEC_89_opt2 (E1D-Q5V-Q108L-A74S) (VHH)
VHH: B1 VHH with Q1D, Q5V, A74S, Q110L
notes: as for B2
B6: 2LEC 24 (VHH)
VHH: QVQLQESGGGLVQAGGSLRLSCAASGRTFSTYAMGWFRQAPGKERGLVAAISWSGGSTYYADSVKGRFTIFRDNAENTVYLQMNSLKPEDTAVYYCAAEAEGSGREGNFYERSWYQGQGTQVTVSS
notes: Entry includes C-terminal AAA-HA-His tag (pMECS); only five His are printed in the text

Substitutions are numbered along the chain they refer to. Names and notes keep the numbering of the source.

T1 sequence (Q6UXN8 57-241 limits assumed): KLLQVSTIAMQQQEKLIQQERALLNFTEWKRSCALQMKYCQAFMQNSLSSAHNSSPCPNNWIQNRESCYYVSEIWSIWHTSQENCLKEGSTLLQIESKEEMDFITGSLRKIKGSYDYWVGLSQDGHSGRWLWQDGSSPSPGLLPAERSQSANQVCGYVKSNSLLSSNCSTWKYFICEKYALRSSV

The first assay addresses T1, biotinylated human CLEC9A (human, UniProt Q6UXN8 57-241, limits assumed, biotinylated (site not stated)).
T1 construct: Captured on a streptavidin sensor for BLI
Put plainly: BLI (Octet), biotinylated human CLEC9A on streptavidin sensor, VHH at 50, 100 and 200 nM, global analysis. On the procedure: Affinities of the AFN's for Clec9A were determined using the bio-layer interferometry technology on an Octet system (ForteBio).
Background: In BLI a coated tip is dipped into the sample, and binding shifts an interference pattern.
In general, Kd refers to the free concentration of one partner at which half of the binding sites on the other are occupied at equilibrium, for simple one-to-one binding. Read a low Kd as higher affinity. One may read the koff as a measure of how fast the partners let go of each other. By kon is commonly meant the rate constant with which the complex forms. With B1, the Kd stood at 1.74 nM, the koff was 0.000725 s⁻¹ and the kon was determined as 416000 M⁻¹ s⁻¹.

With B2, the Kd worked out at 2.35 nM, the koff came out at 0.000982 s⁻¹ and the kon is 417000 M⁻¹ s⁻¹.

With B3, the Kd turned out to be 2.2 nM, the koff amounted to 0.000861 s⁻¹ and the kon worked out at 391000 M⁻¹ s⁻¹.

Turning to B4, the Kd is 2.56 nM, the koff came to 0.00112 s⁻¹ and the kon came to 438000 M⁻¹ s⁻¹.

In turn, B5 displayed a Kd of 2.41 nM, a koff of 0.000817 s⁻¹ and a kon of 338000 M⁻¹ s⁻¹.

The target of a further assay is T2, human Clec9A (human, UniProt Q6UXN8 1-241).
T2 construct: Expressed on transfected CHO-K1, HEK293-T and HL116 cells, or native on human dendritic cells; also called hClec9A; C-type lectin domain family 9 member A
T2 sequence (Q6UXN8 whole entry, the tested form may be a part): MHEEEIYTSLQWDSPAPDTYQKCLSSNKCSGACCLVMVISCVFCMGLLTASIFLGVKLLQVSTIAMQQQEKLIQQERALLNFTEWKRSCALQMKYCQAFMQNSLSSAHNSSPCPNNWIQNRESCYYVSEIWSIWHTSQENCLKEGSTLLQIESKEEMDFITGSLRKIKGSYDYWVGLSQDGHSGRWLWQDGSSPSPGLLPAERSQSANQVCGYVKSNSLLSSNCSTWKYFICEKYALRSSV
The experiment in a line: flow cytometry, crude periplasmic extracts on CHO-K1 cells stably transfected with human Clec9A. The protocol: A VHH library was constructed from an immunized of a llama. Three consecutive rounds of panning of a VHH library were performed in solution using stably transfected CHO-K cells expressing human Clec9A. The enrichment for antigen-specific phages was assessed after each round of panning by comparing the number of phagemid particles eluted from transfected cells (output) with the number of phagemid particles used for panning (input). The phage output increased about 10-fold in the 2nd round and about 10³-fold in the 3rd round, as compared to the output from the 1st round. The input phage was always about 10¹¹ and the output from first round was about 10⁸ phage particles. 285 randomly selected colonies from the 1st, 2nd and 3rd panning rounds (95 from each round) were sequenced and then grouped based on CDR3 sequences. Using crude periplasmic extracts including VHHs, 95 unique sequences were analyzed by flow cytometry for specificity to human Clec9A using CHO-K1 cells stably transfected with human Clec9A. The parental non-transfected CHO-K1 cells served as negative control cell. An irrelevant VHH was used as negative nanobody control. […] Table B below provides a description of 66 clones representing the 66 different anti-human Clec9A VHH genes. E. coli TG1 harboring recombinant phagemid pMECS containing anti-human Clec9A VHH sequences was generated and stored at […]. […]
(In flow cytometry, cells or beads pass a laser one at a time.)
Take B6: the binding result is given as “binds”.
